In data set [1] the target is T1, mouse glycine N-acyltransferase (mGLYAT) (Mus musculus, UniProt Q91XE0).
T1 sequence (Q91XE0 1-296): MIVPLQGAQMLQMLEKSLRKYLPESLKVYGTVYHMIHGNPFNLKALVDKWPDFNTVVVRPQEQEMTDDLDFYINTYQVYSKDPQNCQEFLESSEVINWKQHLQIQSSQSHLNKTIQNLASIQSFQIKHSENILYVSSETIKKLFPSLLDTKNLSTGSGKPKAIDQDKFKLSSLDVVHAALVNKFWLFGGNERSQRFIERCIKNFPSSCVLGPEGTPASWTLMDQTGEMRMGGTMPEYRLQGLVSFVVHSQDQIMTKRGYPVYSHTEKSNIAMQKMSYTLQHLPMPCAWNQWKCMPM
Nature of the data set: DTNB assay of CoA-SH release, […] benzoyl-CoA and […] glycine. It counts as biochemical.

Substrate in data set [2]: CC(=O)SCCNC(=O)CCNC(=O)[C@H](O)C(C)(C)COP(=O)(O)OP(=O)(O)OC[C@H]1O[C@@H](n2cnc3c(N)ncnc32)[C@H](O)[C@@H]1OP(=O)(O)O
Nature of the data set: purified protein. The settings on record: amino acceptor substrate.

Substrate in data set [3]: CC(C)(COP(=O)(O)OP(=O)(O)OC[C@H]1O[C@@H](n2cnc3c(N)ncnc32)[C@H](O)[C@@H]1OP(=O)(O)O)[C@@H](O)C(=O)NCCC(=O)NCCSC(=O)c1ccccc1
Nature of the data set: purified protein. The settings on record: amino acceptor substrate. It counts as biochemical, Mus musculus.

Substrate in data set [4]: CCCC(=O)SCCNC(=O)CCNC(=O)[C@H](O)C(C)(C)COP(=O)(O)OP(=O)(O)OC[C@H]1O[C@@H](n2cnc3c(N)ncnc32)[C@H](O)[C@@H]1OP(=O)(O)O
Nature of the data set: purified protein. It counts as biochemical, Mus musculus. The conditions noted are these: amino acceptor substrate.

Substrate in data set [5]: CCCCCC(=O)SCCNC(=O)CCNC(=O)[C@H](O)C(C)(C)COP(=O)(O)OP(=O)(O)OC[C@H]1O[C@@H](n2cnc3c(N)ncnc32)[C@H](O)[C@@H]1OP(=O)(O)O
Nature of the data set: purified protein. It counts as biochemical, Mus musculus. The conditions noted are these: amino acceptor substrate.

Substrate in data set [6]: CCOC(=O)CN
Nature of the data set: purified protein. Type of data set: biochemical, Mus musculus. The settings on record: benzoyl-CoA (co-substrate) amino donor substrate.

Substrate in data set [7]: COC(=O)CN
Nature of the data set: purified protein. The settings on record: benzoyl-CoA (co-substrate) amino donor substrate. It counts as biochemical, Mus musculus.

Substrate in data set [8]: NCC(=O)O
Nature of the data set: purified protein. Type of data set: biochemical, Mus musculus. The conditions noted are these: benzoyl-CoA (co-substrate) amino donor substrate.

With `O=C(O)CO` [Glycolic acid], it took 58 ± 4.9 mM to reach half-maximal inhibition in data set [1] (IC50).
On the same count and under the same terms, the figure for `CCCCCCCC/C=C\CCCCCCCC(=O)SCCNC(=O)CCNC(=O)[C@H](O)C(C)(C)COP(=O)(O)OP(=O)(O)OC[C@H]1O[C@@H](n2cnc3c(N)ncnc32)[C@H](O)[C@@H]1OP(=O)(O)O` [Oleoyl-CoA] is 0.021 ± 0.0034 mM.

B1: mouse glycine N-acyltransferase (mGLYAT) (Mus musculus) (protein)
chain: T1 sequence (Q91XE0 1-296)
For the molecule B1, the Km (usually the concentration of substrate that gives half-maximal velocity) in data set [2] amounted to 209 ± 43 µM; in data set [3], 9.4 ± 14 µM; in data set [4], 52 ± 7.9 µM; in data set [5], 45 ± 3.0 µM; in data set [6], 9700 ± 1700 µM; in data set [7], 29000 ± 9100 µM. For the same molecule, the Km in data set [8] turned out to be 6100 ± 1200 µM. The kcat (commonly the maximal rate divided by the concentration of active sites) was found to be 0.8 s⁻¹ in data set [2]; 4.2 ± 0.25 s⁻¹ in data set [3]; 15 ± 0.43 s⁻¹ in data set [4]; 4.6 ± 0.085 s⁻¹ in data set [5]; 0.57 ± 0.023 s⁻¹ in data set [6]; 1 ± 0.12 s⁻¹ in data set [7]. Also, the turnover number (kcat) in data set [8] amounted to 3.2 ± 0.12 s⁻¹. Moreover, the catalytic efficiency (kcat/Km) (commonly the turnover number divided by the Michaelis constant) in data set [2] worked out at 3800 M⁻¹ s⁻¹; in data set [3] it was 450000 ± 27000 M⁻¹ s⁻¹; in data set [4] it was 290000 ± 8200 M⁻¹ s⁻¹; in data set [5], 100000 ± 1900 M⁻¹ s⁻¹; in data set [6] it was 59 ± 2.3 M⁻¹ s⁻¹; in data set [7], 35 ± 4.1 M⁻¹ s⁻¹. Besides, the specificity constant (kcat/Km) in data set [8] came to 520 ± 20 M⁻¹ s⁻¹.

Source of the values: PMC3985065 (Protein expression and purification, 2014).
